Laboratory results taken from patent publication US5766897A, “Cysteine-pegylated proteins” (Incyte Pharmaceuticals, Inc., priority 1995, dated 1998).

Experiments:
[1] = serum half-life after tail vein injection, sandwich ELISA; details: rat
Description: The PN-1 variant N99C;N140C was PEGylated by reaction with the Maleimido-PEG reagent as described above in section G.2. Small scale reactions were first performed to determine the excess of Maleimido-PEG reagent required to drive the reaction to completion, i.e., to PEGylate both the N99C and N140C sites of the protein. The final PEGylation reaction contained about a 3-fold excess of Maleimido-PEG over the amount of N99C;N140C protein in the reaction mixture. Cysteine-PEGylated protein was purified by ion exchange chromatography as described in Section D3 above with an additional final Mono-S ion exchange step. The bis-modified,cysteine-PEGylated N99C;140C protein and unmodified N99C;N140C protein were resuspended in 50 mM PIPES pH 6.7, 150 mM NaCl, 10% glycerol.
The serum half-life of the PEGylated N99C;N140C variant was compared to the half-life of the unmodified N99C;N140C variant by injecting a 0.3 ml of a 3 mg/ml solution containing either the cysteine-PEGylated N99C;N140C or unmodified N99C;N140C into the tail vein of 200 g rats. At 2 min, 10 min, 30 min, 60 min, and 120 min after injection, a 0.5 ml blood sample was collected onto EDTA anticoagulant. The blood samples were centrifuged to separate plasma from blood cells, and the concentration of cysteine-PEGylated N99C;N140C or unmodified N99C;N140C determined by sandwich ELISA as described by Evans et al. (1991) J. Biol. Chem. 266:22307-22312, using a rabbit polyclonal antibody.

Thrombin = Thrombin (Homo sapiens, UniProt P00734); assay: thrombin inhibition activity assay (D.4), specific activity; type: biochemical; details: for ACTIVITY, AFTER PEG MODIFICATION: after cysteine-PEGylation with Maleimido-PEG; for REL TO WT, BEFORE PEG MODIFICATION: activity relative to wild type PN-1; for REL TO ACTIVITY BEFORE PEG, AFTER PEG MODIFICATION: cysteine-PEGylated protein relative to same protein before PEGylation; for REL TO WT, AFTER PEG MODIFICATION: cysteine-PEGylated protein relative to wild type PN-1
Procedure: Refolded or soluble protein was tested for capacity to inhibit thrombin in a standard assay. Briefly, serial 2-fold dilutions of PN-1 variant were added to microtiter plate wells (50 μl/well), followed by 50 μl of a 30 μg/ml heparin solution, followed by 1 NIH unit of thrombin in 50 μl. These were allowed to incubate at 25° C. for 15 minutes. Residual thrombin activity was measured by the addition of 50 μl S-2238 (Kabi Pharmaceuticals) at 0.625 mg/ml. PN-1 variants were tested for their ability to inhibit urokinase using the substrate S-2444, plasmin using the substrate S-2390, tPA using the substrate S2288, Factor Xa using the substrate S-2222 or S-2765, kallikrein using the substrate S-2302, human neutrophil elastase using s-AAPV-pna (Sigma), cathepsin G using s-AAPF-pna (Sigma) in a similar manner, with or without the addition of heparin.
Each of the PN-1 site-directed mutant proteins, as well as wild type PN-1, were modified by cysteine-PEGylation using the protocol described in F.2. The activity of wild type PN-1, each of the PN-1 site-directed mutants, and the cysteine-PEGylated wild type and mutant proteins was determined using the assay described in D.4.

| Molecule | enhancement of t1/2 by cysteine-PEGylation ([1]; in vivo) | total administered amount present in the blood stream ([1]; in vivo, 60 min) | t1/2 (serum half-life) ([1]; in vivo, iv) [min] | change of specific activity with increasing PEGylation reagent in reaction mixture (FIG. 4) (Thrombin; increasing ratio of PEG reagent to protein) | activity retained relative to unmodified PN-1 (Thrombin; reacted at a ratio of 3:1 Maleimido-PEG to protein) | t1/2 (serum half-life) ([1]; tail vein injection) [min] | total administered amount present in the blood stream ([1]; tail vein injection, 60 min time point) | ACTIVITY, AFTER PEG MODIFICATION (Thrombin) | SPECIFIC ACTIVITY, BEFORE PEG MODIFICATION (Thrombin) | REL TO WT, BEFORE PEG MODIFICATION (Thrombin) | REL TO ACTIVITY BEFORE PEG, AFTER PEG MODIFICATION (Thrombin) | REL TO WT, AFTER PEG MODIFICATION (Thrombin) |
| --- | --- | --- | --- | --- | --- | --- | --- | --- | --- | --- | --- | --- |
| cysteine-PEGylated N99C;N140C: N99C;N140C PN-1 variant PEGylated at cysteines by reaction with Maleimido-PEG (PEG MW about 5,000) (conjugate, UniProt P07093 20-398, looked up, variant N99C N140C, cysteine-linked maleimido-PEG 5 kDa) Glia-derived nexin: SHFNPLSLEELGSNTGIQVFNQIVKSRPHDNIVISPHGIASVLGMLQLGADGRTKKQLAMVMRYGVNGVGKILKKINKAIVSKKNKDIVTVANAVFVKCASEIEVPFVTRNKDVFQCEVRNVNFEDPASACDSINAWVKCETRDMIDNLLSPDLIDGVLTRLVLVNAVYFKGLWKSRFQPENTKKRTFVAADGKSYQVPMLAQLSVFRCGSTSAPNDLWYNFIELPYHGESISMLIALPTESSTPLSAIIPHISTKTIDSWMSIMVPKRVQVILPKFTAVAQTDLKEPLKVLGITDMFDSSKANFAKITTGSENLHVSHILQKAKIEVSEDGTKASAATTAILIARSSPPWFIVDRPFLFFIRHNPTGAVLFMGQINKP | about 6 fold | 55-60% | 60 to 80 | increased with an increasing amount of the Maleimido-PEG reagent | at least 100% |  |  |  |  |  |  |  |
| N99C;N140C (protein, UniProt P07093 20-398, looked up, variant N99C N140C) Glia-derived nexin: SHFNPLSLEELGSNTGIQVFNQIVKSRPHDNIVISPHGIASVLGMLQLGADGRTKKQLAMVMRYGVNGVGKILKKINKAIVSKKNKDIVTVANAVFVKCASEIEVPFVTRNKDVFQCEVRNVNFEDPASACDSINAWVKCETRDMIDNLLSPDLIDGVLTRLVLVNAVYFKGLWKSRFQPENTKKRTFVAADGKSYQVPMLAQLSVFRCGSTSAPNDLWYNFIELPYHGESISMLIALPTESSTPLSAIIPHISTKTIDSWMSIMVPKRVQVILPKFTAVAQTDLKEPLKVLGITDMFDSSKANFAKITTGSENLHVSHILQKAKIEVSEDGTKASAATTAILIARSSPPWFIVDRPFLFFIRHNPTGAVLFMGQINKP |  |  |  |  |  | 10 to 12 | less than 3% | 0.40 NIH units of thrombin inhibited per μg PN1 (variant) | 0.20 NIH units of thrombin inhibited per μg PN1 (variant) | 0.40 | 2 | 0.80 |
| E230C (conjugate, UniProt P07093 20-398, looked up, variant E230C, PEG) Glia-derived nexin: SHFNPLSLEELGSNTGIQVFNQIVKSRPHDNIVISPHGIASVLGMLQLGADGRTKKQLAMVMRYGVNGVGKILKKINKAIVSKKNKDIVTVANAVFVKNASEIEVPFVTRNKDVFQCEVRNVNFEDPASACDSINAWVKNETRDMIDNLLSPDLIDGVLTRLVLVNAVYFKGLWKSRFQPENTKKRTFVAADGKSYQVPMLAQLSVFRCGSTSAPNDLWYNFIELPYHGCSISMLIALPTESSTPLSAIIPHISTKTIDSWMSIMVPKRVQVILPKFTAVAQTDLKEPLKVLGITDMFDSSKANFAKITTGSENLHVSHILQKAKIEVSEDGTKASAATTAILIARSSPPWFIVDRPFLFFIRHNPTGAVLFMGQINKP |  |  |  |  |  |  |  | 0.20 NIH units of thrombin inhibited per μg PN1 (variant) | 0.071 NIH units of thrombin inhibited per μg PN1 (variant) | 0.14 | 2.8 | 0.40 |
| H252C (conjugate, UniProt P07093 20-398, looked up, variant H252C, PEG) Glia-derived nexin: SHFNPLSLEELGSNTGIQVFNQIVKSRPHDNIVISPHGIASVLGMLQLGADGRTKKQLAMVMRYGVNGVGKILKKINKAIVSKKNKDIVTVANAVFVKNASEIEVPFVTRNKDVFQCEVRNVNFEDPASACDSINAWVKNETRDMIDNLLSPDLIDGVLTRLVLVNAVYFKGLWKSRFQPENTKKRTFVAADGKSYQVPMLAQLSVFRCGSTSAPNDLWYNFIELPYHGESISMLIALPTESSTPLSAIIPCISTKTIDSWMSIMVPKRVQVILPKFTAVAQTDLKEPLKVLGITDMFDSSKANFAKITTGSENLHVSHILQKAKIEVSEDGTKASAATTAILIARSSPPWFIVDRPFLFFIRHNPTGAVLFMGQINKP |  |  |  |  |  |  |  | 0.25 NIH units of thrombin inhibited per μg PN1 (variant) | 0.10 NIH units of thrombin inhibited per μg PN1 (variant) | 0.20 | 2.5 | 0.50 |
| S263C (conjugate, UniProt P07093 20-398, looked up, variant S263C, PEG) Glia-derived nexin: SHFNPLSLEELGSNTGIQVFNQIVKSRPHDNIVISPHGIASVLGMLQLGADGRTKKQLAMVMRYGVNGVGKILKKINKAIVSKKNKDIVTVANAVFVKNASEIEVPFVTRNKDVFQCEVRNVNFEDPASACDSINAWVKNETRDMIDNLLSPDLIDGVLTRLVLVNAVYFKGLWKSRFQPENTKKRTFVAADGKSYQVPMLAQLSVFRCGSTSAPNDLWYNFIELPYHGESISMLIALPTESSTPLSAIIPHISTKTIDSWMCIMVPKRVQVILPKFTAVAQTDLKEPLKVLGITDMFDSSKANFAKITTGSENLHVSHILQKAKIEVSEDGTKASAATTAILIARSSPPWFIVDRPFLFFIRHNPTGAVLFMGQINKP |  |  |  |  |  |  |  | 0.093 NIH units of thrombin inhibited per μg PN1 (variant) | 0.05 NIH units of thrombin inhibited per μg PN1 (variant) | 0.1 | 1.86 | 0.19 |
| N304C (conjugate, UniProt P07093 20-398, looked up, variant N304C, PEG) Glia-derived nexin: SHFNPLSLEELGSNTGIQVFNQIVKSRPHDNIVISPHGIASVLGMLQLGADGRTKKQLAMVMRYGVNGVGKILKKINKAIVSKKNKDIVTVANAVFVKNASEIEVPFVTRNKDVFQCEVRNVNFEDPASACDSINAWVKNETRDMIDNLLSPDLIDGVLTRLVLVNAVYFKGLWKSRFQPENTKKRTFVAADGKSYQVPMLAQLSVFRCGSTSAPNDLWYNFIELPYHGESISMLIALPTESSTPLSAIIPHISTKTIDSWMSIMVPKRVQVILPKFTAVAQTDLKEPLKVLGITDMFDSSKACFAKITTGSENLHVSHILQKAKIEVSEDGTKASAATTAILIARSSPPWFIVDRPFLFFIRHNPTGAVLFMGQINKP |  |  |  |  |  |  |  | 0.17 NIH units of thrombin inhibited per μg PN1 (variant) | 0.056 NIH units of thrombin inhibited per μg PN1 (variant) | 0.11 | 3 | 0.33 |
| C117S;C131S;C209S (protein, UniProt P07093 20-398, looked up, variant C117S C131S C209S) Glia-derived nexin: SHFNPLSLEELGSNTGIQVFNQIVKSRPHDNIVISPHGIASVLGMLQLGADGRTKKQLAMVMRYGVNGVGKILKKINKAIVSKKNKDIVTVANAVFVKNASEIEVPFVTRNKDVFQSEVRNVNFEDPASASDSINAWVKNETRDMIDNLLSPDLIDGVLTRLVLVNAVYFKGLWKSRFQPENTKKRTFVAADGKSYQVPMLAQLSVFRSGSTSAPNDLWYNFIELPYHGESISMLIALPTESSTPLSAIIPHISTKTIDSWMSIMVPKRVQVILPKFTAVAQTDLKEPLKVLGITDMFDSSKANFAKITTGSENLHVSHILQKAKIEVSEDGTKASAATTAILIARSSPPWFIVDRPFLFFIRHNPTGAVLFMGQINKP |  |  |  |  |  |  |  | 0.50 NIH units of thrombin inhibited per μg PN1 (variant) | 0.050 NIH units of thrombin inhibited per μg PN1 (variant) |  |  |  |
